{"source": "the PETadex activity labels (doi:10.1128/spectrum.00976-21)", "proteins": {"B1": {"name": "unnamed (protein)", "chain": "MVRVFGLTLLALLVPALAAPVPEDLEARQSGCADVMVVYARGTDQDSPIGDPASVGVLFRDNIKSLLGSRTFSFQGVNYAANVIGFLQGGDPAGSRQMTTDLTNVANSCPNAKIVSAGYSQGGQLVHNSAAQLTAAVRNRINAVVIFGDPKSDQAVTGIPSSNVKIICHDGDNICEGGFIVTSQHTNYQQDAPAAAQFVLSKV"}}, "key": {"[1]": {"substrate": "pNP-C2", "experiment": "Proxy for plastic degradation [Specific activity]"}, "[2]": {"substrate": "PET; PCL", "experiment": "Proxy for plastic degradation [Titratable acid release]", "conditions": "pH 7.5; 14 h"}}}
{"protein": "B1", "values": [{"measurement": "Proxy for plastic degradation", "setting": "[1]; pH 2", "result": 0, "unit": "U/mg"}, {"measurement": "Proxy for plastic degradation", "setting": "[1]; pH 3", "result": 0, "unit": "U/mg"}, {"measurement": "Proxy for plastic degradation", "setting": "[1]; pH 4", "result": 0, "unit": "U/mg"}, {"measurement": "Proxy for plastic degradation", "setting": "[1]; pH 5", "result": 14500, "unit": "U/mg"}, {"measurement": "Proxy for plastic degradation", "setting": "[1]; pH 6", "result": 27500, "unit": "U/mg"}, {"measurement": "Proxy for plastic degradation", "setting": "[1]; pH 7", "result": 29500, "unit": "U/mg"}, {"measurement": "Proxy for plastic degradation", "setting": "[1]; pH 7.5, 0 h", "result": 17500, "unit": "U/mg"}, {"measurement": "Proxy for plastic degradation", "setting": "[1]; pH 7.5, 20 °C", "result": 0, "unit": "U/mg"}, {"measurement": "Proxy for plastic degradation", "setting": "[1]; pH 7.5, 30 °C", "result": 22500, "unit": "U/mg"}, {"measurement": "Proxy for plastic degradation", "setting": "[1]; pH 7.5, 40 °C", "result": 32500, "unit": "U/mg"}, {"measurement": "Proxy for plastic degradation", "setting": "[1]; pH 7.5, 50 °C", "result": 20000, "unit": "U/mg"}, {"measurement": "Proxy for plastic degradation", "setting": "[1]; pH 7.5, 60 °C", "result": 300, "unit": "U/mg"}, {"measurement": "Proxy for plastic degradation", "setting": "[1]; pH 7.5, 70 °C", "result": 0, "unit": "U/mg"}, {"measurement": "Proxy for plastic degradation", "setting": "[1]; pH 7.5, 80 °C", "result": 0, "unit": "U/mg"}, {"measurement": "Proxy for plastic degradation", "setting": "[1]; pH 7.5, 1 h", "result": 19400, "unit": "U/mg"}, {"measurement": "Proxy for plastic degradation", "setting": "[1]; pH 7.5, 2 h", "result": 22500, "unit": "U/mg"}, {"measurement": "Proxy for plastic degradation", "setting": "[1]; pH 7.5, 3 h", "result": 35000, "unit": "U/mg"}, {"measurement": "Proxy for plastic degradation", "setting": "[1]; pH 7.5, 4 h", "result": 25000, "unit": "U/mg"}, {"measurement": "Proxy for plastic degradation", "setting": "[1]; pH 7.5, 5 h", "result": 18500, "unit": "U/mg"}, {"measurement": "Proxy for plastic degradation", "setting": "[1]; pH 8", "result": 32200, "unit": "U/mg"}, {"measurement": "Proxy for plastic degradation", "setting": "[1]; pH 9", "result": 10000, "unit": "U/mg"}, {"measurement": "Proxy for plastic degradation", "setting": "[2]", "result": 10.9, "unit": "mL"}]}
